T1: interferon-alpha receptor (type I interferon receptor comprising receptor subunits IFNAR-2 and IFNAR-1) (human, UniProt P17181 28-557; P48551 27-515)
T1 sequence (looked up) 1: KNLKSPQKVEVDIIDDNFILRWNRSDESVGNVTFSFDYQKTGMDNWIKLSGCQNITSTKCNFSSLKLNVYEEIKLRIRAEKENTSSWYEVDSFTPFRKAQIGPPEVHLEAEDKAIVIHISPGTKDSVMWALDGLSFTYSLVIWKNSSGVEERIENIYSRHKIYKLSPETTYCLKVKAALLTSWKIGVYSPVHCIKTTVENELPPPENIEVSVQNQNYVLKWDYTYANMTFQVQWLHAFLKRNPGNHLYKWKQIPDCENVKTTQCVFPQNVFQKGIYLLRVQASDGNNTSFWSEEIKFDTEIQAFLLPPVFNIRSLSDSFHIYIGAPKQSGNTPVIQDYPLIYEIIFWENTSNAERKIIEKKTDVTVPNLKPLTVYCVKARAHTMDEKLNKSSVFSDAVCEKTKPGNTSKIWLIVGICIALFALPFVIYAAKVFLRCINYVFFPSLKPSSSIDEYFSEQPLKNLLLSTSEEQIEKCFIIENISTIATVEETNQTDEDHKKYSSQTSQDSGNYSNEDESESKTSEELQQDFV
T1 sequence (looked up) 2: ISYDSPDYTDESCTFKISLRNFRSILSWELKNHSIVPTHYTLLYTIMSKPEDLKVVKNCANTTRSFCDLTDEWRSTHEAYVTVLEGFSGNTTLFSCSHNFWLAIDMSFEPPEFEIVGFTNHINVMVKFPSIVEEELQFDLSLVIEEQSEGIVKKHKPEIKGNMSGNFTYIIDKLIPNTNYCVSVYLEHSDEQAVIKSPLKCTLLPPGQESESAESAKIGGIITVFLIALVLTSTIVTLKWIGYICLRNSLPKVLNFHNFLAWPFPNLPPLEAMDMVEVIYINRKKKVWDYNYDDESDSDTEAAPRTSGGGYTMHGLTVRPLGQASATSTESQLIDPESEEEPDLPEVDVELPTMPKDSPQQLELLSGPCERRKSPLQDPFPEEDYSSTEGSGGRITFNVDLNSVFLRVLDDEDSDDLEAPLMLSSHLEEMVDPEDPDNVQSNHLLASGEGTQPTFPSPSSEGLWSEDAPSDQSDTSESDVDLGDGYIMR


Target: T1, interferon-alpha receptor (type I …)
Experiment: cell-based or functional assay

Row | Binder | HeLa/EMCV Antiviral activity relative to huIFN-alpha 2b | HuH7/EMCV Antiviral activity relative to huIFN-alpha 2b
1 | B9x14EC4 (ligand) CDLPQTHSLGHRRTMMLLAQMRRISLFSCLKDRHDFRFPQEEFDGNHFQKVQAIFLFYEMMQQTFNLFSTKDSSAAWDETLLEKFYIELFQQMNDLEACVMQEVGVEETPLMNVDSILAVRKYFQRITLYLTEKKYSPCAWEVVRAEIMRSFSFSTNLQESLRSKE | > 8 fold | > 8 fold
2 | 14epi18 (ligand) CDLPQTHSLGHRRTMMLLAQMRRISLFSCLKDRHDFRFPQEEFDGNHAQKVQAIFLFYEMMQQTFNLFSTKDSSAAWDETLLEKFYIELFQQMNDLEACVMQEVGVEETPLMNVDSILAVRKYFQRITLYLTEKKYSPCAWEVVRAEIMRSFSFSTNLQESLRSKE | > 8 fold | > 8 fold
3 | 14epi34 (ligand) CDLPQTHSLGHRRTMMLLAQMRRISLFSCLKDRHDFRFPQEEFDGNHFQKVPAISLFYEMMQQTFNLFSTKDSSAAWDETLLEKFYIELFQQMNDLEACVMQEVGVEETPLMNEDSILAVRKYFQRITLYLTEKKYSPCAWEVVRAEIMRSFSFSTNLQESLRSKE | > 8 fold | > 8 fold
4 | 14epi26 (ligand) CDLPQTHSLGHRRTMMLLAQMRRISLFSCLKDRHDFRFPQEEFDGNHLQKVQAISLFYEMMQQTFNLFSTKDSSAAWDETLLEKFYIELFQQMNDLEACVMQEVGVEETPLMKEDSILAVRKYFQRITLYLTEKKYSPCAWEVVRAEIMRSFSFSTNLQESLRSKE | > 8 fold | –
5 | 14epi33 (ligand) CDLPQTHSLGHRRTMMLLAQMRRISLFSCLKDRHDFRFPQEEFDGNHFQKVPAISLFYEMMQQTFNLFSTKDSSAAWDETLLEKFYIELFQQMNDLEACVMQEVGVEETPLMKEDSILAVRKYFQRITLYLTEKKYSPCAWEVVRAEIMRSFSFSTNLQESLRSKE | > 8 fold | > 8 fold
6 | 14epi15 (ligand) CDLPQTHSLGHRRTMMLLAQMRRISLFSCLKDRHDFRFPQEEFDGNHLQKVQAIFLFYEMMQQTFNLFSTKDSSAAWDETLLEKFYIELFQQMNDLEACVMQEVGVEETPLMNVDSILAVRKYFQRITLYLTEKKYSPCAWEVVRAEIMRSFSFSTNLQESLRSKE | > 8 fold | > 8 fold
7 | 14epi25 (ligand) CDLPQTHSLGHRRTMMLLAQMRRISLFSCLKDRHDFRFPQEEFDGNHLQKVQAISLFYEMMQQTFNLFSTKDSSAAWDETLLEKFYIELFQQMNDLEACVMQEVGVEETPAMNVDSILAVRKYFQRITLYLTEKKYSPCAWEVVRAEIMRSFSFSTNLQESLRSKE | > 8 fold | > 8 fold
8 | 14epi29 (ligand) CDLPQTHSLGHRRTMMLLAQMRRISLFSCLKDRHDFRFPQEEFDGNHAQKVQAISLFYEMMQQTANLFSTKDSSAAWDETLLEKFYIELFQQMNDLEACVMQEVGVEETPLMNVDSILAVRKYFQRITLYLTEKKYSPCAWEVVRAEIMRSFSFSTNLQESLRSKE | > 8 fold | –
9 | 14epi31 (ligand) CDLPQTHSLGHRRTMMLLAQMRRISLFSCLKDRHDFRFPQEEFDGNHAQKVQAIALFYEMMQQTFNLFSTKDSSAAWDETLLEKFYIELFQQMNDLEACVMQEVGVEETPLMKEDSILAVRKYFQRITLYLTEKKYSPCAWEVVRAEIMRSFSFSTNLQESLRSKE | > 8 fold | –
10 | 14epi17 (ligand) CDLPQTHSLGHRRTMMLLAQMRRISLFSCLKDRHDFRFPQEEFDGNHLQKVQAISLFYEMMQQTFNLFSTKDSSAAWDETLLEKFYIELFQQMNDLEACVMQEVGVEETPLMNVDSILAVRKYFQRITLYLTEKKYSPCAWEVVRAEIMRSFSFSTNLQESLRSKE | > 8 fold | > 8 fold
11 | 14epi22 (ligand) CDLPQTHSLGHRRTMMLLAQMRRISLFSCLKDRHDFRFPQEEFDGNHFQKVQAISLFYEMMQQTFNLFSTKDSSAAWDETLLEKFYIELFQQMNDLEACVMQEVGVEETPLMNVDSILAVRKYFQRITLYLTEKKYSPCAWEVVRAEIMRSFSFSTNLQESLRSKE | > 8 fold | –
12 | 14epi32 (ligand) CDLPQTHSLGHRRTMMLLAQMRRISLFSCLKDRHDFRFPQEEFDGNHLQKVPAISLFYEMMQQTFNLFSTKDSSAAWDETLLEKFYIELFQQMNDLEACVMQEVGVEETPLMKEDSILAVRKYFQRITLYLTEKKYSPCAWEVVRAEIMRSFSFSTNLQESLRSKE | > 8 fold | > 8 fold
13 | 14epi16 (ligand) CDLPQTHSLGHRRTMMLLAQMRRISLFSCLKDRHDFRFPQEEFDGNHLQKVQAIALFYEMMQQTFNLFSTKDSSAAWDETLLEKFYIELFQQMNDLEACVMQEVGVEETPLMNVDSILAVRKYFQRITLYLTEKKYSPCAWEVVRAEIMRSFSFSTNLQESLRSKE | > 8 fold | > 8 fold
14 | 14epi19 (ligand) CDLPQTHSLGHRRTMMLLAQMRRISLFSCLKDRHDFRFPQEEFDGNHAQKVQAIALFYEMMQQTFNLFSTKDSSAAWDETLLEKFYIELFQQMNDLEACVMQEVGVEETPLMNVDSILAVRKYFQRITLYLTEKKYSPCAWEVVRAEIMRSFSFSTNLQESLRSKE | > 8 fold | > 8 fold
15 | 14epi20 (ligand) CDLPQTHSLGHRRTMMLLAQMRRISLFSCLKDRHDFRFPQEEFDGNHAQKVQAISLFYEMMQQTFNLFSTKDSSAAWDETLLEKFYIELFQQMNDLEACVMQEVGVEETPLMNVDSILAVRKYFQRITLYLTEKKYSPCAWEVVRAEIMRSFSFSTNLQESLRSKE | > 8 fold | > 8 fold
16 | 14epi21 (ligand) CDLPQTHSLGHRRTMMLLAQMRRISLFSCLKDRHDFRFPQEEFDGNHFQKVQAIALFYEMMQQTFNLFSTKDSSAAWDETLLEKFYIELFQQMNDLEACVMQEVGVEETPLMNVDSILAVRKYFQRITLYLTEKKYSPCAWEVVRAEIMRSFSFSTNLQESLRSKE | > 8 fold | > 8 fold
17 | 25epi19 (ligand) CDLPQTHSLSNRRTLMLMAQMRRISPFSCLKDRHDFGFPEEEFDGHQAQKVQAIFLLYELIQQTFNLFSTKDSSAAWDETLLEKFYIELFQQMNNLEACVIQEVGVEEIALMNVDSILAVRKYFRRITLYLTEKKYSPCAWEVVRAEIMRSFSFSTNLQESLRSKE | > 8 fold | > 8 fold

Target: T1, interferon-alpha receptor (type I …)
Experiment: cell-based or functional assay
Remark: another data set of the same source

Row | Binder | HeLa-EMCV antiviral assay, antiviral activity relative to monoPEGylated IFN-alpha 2a
18 | MonoPEGylated 25epi19 (ligand, single 40 kDa branched PEG (mPEG2-NHS) on a lysine; positional isomers predominantly monoPEGylated at Lys31, Lys122 and Lys135) MCDLPQTHSLSNRRTLMLMAQMRRISPFSCLKDRHDFGFPEEEFDGHQAQKVQAIFLLYELIQQTFNLFSTKDSSAAWDETLLEKFYIELFQQMNNLEACVIQEVGVEEIALMNVDSILAVRKYFRRITLYLTEKKYSPCAWEVVRAEIMRSFSFSTNLQESLRSKE | > 10 fold
19 | MonoPEGylated 14epi18 (ligand, single 40 kDa branched PEG (mPEG2-NHS) on a lysine; positional isomers predominantly monoPEGylated at Lys122 and Lys135) MCDLPQTHSLGHRRTMMLLAQMRRISLFSCLKDRHDFRFPQEEFDGNHAQKVQAIFLFYEMMQQTFNLFSTKDSSAAWDETLLEKFYIELFQQMNDLEACVMQEVGVEETPLMNVDSILAVRKYFQRITLYLTEKKYSPCAWEVVRAEIMRSFSFSTNLQESLRSKE | > 10 fold

Target: T1, interferon-alpha receptor (type I …)
Experiment: cell-based or functional assay
Remark: another data set of the same source

Row | Binder | TH1 activity (IFN-gamma in supernatants of naive T cells), Fold over IFN-alpha 2a
20 | 14epi18 (ligand) CDLPQTHSLGHRRTMMLLAQMRRISLFSCLKDRHDFRFPQEEFDGNHAQKVQAIFLFYEMMQQTFNLFSTKDSSAAWDETLLEKFYIELFQQMNDLEACVMQEVGVEETPLMNVDSILAVRKYFQRITLYLTEKKYSPCAWEVVRAEIMRSFSFSTNLQESLRSKE | > 30 fold
21 | 25epi19 (ligand) CDLPQTHSLSNRRTLMLMAQMRRISPFSCLKDRHDFGFPEEEFDGHQAQKVQAIFLLYELIQQTFNLFSTKDSSAAWDETLLEKFYIELFQQMNNLEACVIQEVGVEEIALMNVDSILAVRKYFRRITLYLTEKKYSPCAWEVVRAEIMRSFSFSTNLQESLRSKE | > 30 fold
